Data from US20210139548A1 (published 2021).
*1 amine or outer side, *2 acyl side, *3 side chain or, on linkers, in order; H or OH if unused. Side-chain parts run from the residue outwards. The star is where a group is joined. C18 diacid = O=C(O)CCCCCCCCCCCCCCCCC(=O)*; γGlu = O=C(O)[C@H](CCC(=O)[*:2])N[*:1]; Isovaleryl = CC(C)CC(=O)*; AEEA = NCCOCCOCC(=O)O

Molecular target: T1, human neuropeptide Y2 receptor (human, UniProt P49146 1-381)
T1 construct: whole, on cells; also called hNPY2 receptor; hNPY2-R
T1 sequence (looked up): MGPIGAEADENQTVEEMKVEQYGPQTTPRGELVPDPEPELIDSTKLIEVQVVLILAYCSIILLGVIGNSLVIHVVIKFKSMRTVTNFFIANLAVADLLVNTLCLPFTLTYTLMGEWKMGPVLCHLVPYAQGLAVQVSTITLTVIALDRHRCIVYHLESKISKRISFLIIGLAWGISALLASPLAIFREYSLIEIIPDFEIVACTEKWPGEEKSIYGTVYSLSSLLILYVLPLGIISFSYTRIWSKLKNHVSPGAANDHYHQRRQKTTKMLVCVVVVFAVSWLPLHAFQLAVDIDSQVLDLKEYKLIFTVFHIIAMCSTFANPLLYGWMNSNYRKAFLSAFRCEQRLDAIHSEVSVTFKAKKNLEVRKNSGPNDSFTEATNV
Assay: radioligand competition (125I-PYY(1-36)), hNPY2R membranes
In short: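 Commercial human Y2 receptor membranes (0.5 μg protein/well) were incubated with peptide for 2 h at room temperature in 50 mM HEPES, 5 mM MgCl₂, 1 mM CaCl₂, pH 7.4, with 0.2% ovalbumin. Bound radioligand was separated on PEI-soaked GF/C filters and counted by scintillation, and IC₅₀ came from nonlinear sigmoidal regression.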

B1: Compound 234 (peptide)
peptide: Isovaleryl-APAK([AEEA-AEEA-γGlu-C18 diacid])PEEEASPEELQRYYVSLRHYYNWLTRQRY-NH2
SMILES: CC(C)CC(=O)N[C@@H](C)C(=O)N1CCC[C@H]1C(=O)N[C@@H](C)C(=O)N[C@@H](CCCCNC(=O)COCCOCCNC(=O)COCCOCCNC(=O)CC[C@H](NC(=O)CCCCCCCCCCCCCCCCC(=O)O)C(=O)O)C(=O)N1CCC[C@H]1C(=O)N[C@@H](CCC(=O)O)C(=O)N[C@@H](CCC(=O)O)C(=O)N[C@@H](CCC(=O)O)C(=O)N[C@@H](C)C(=O)N[C@@H](CO)C(=O)N1CCC[C@H]1C(=O)N[C@@H](CCC(=O)O)C(=O)N[C@@H](CCC(=O)O)C(=O)N[C@@H](CC(C)C)C(=O)N[C@@H](CCC(N)=O)C(=O)N[C@@H](CCCNC(=N)N)C(=O)N[C@@H](Cc1ccc(O)cc1)C(=O)N[C@@H](Cc1ccc(O)cc1)C(=O)N[C@H](C(=O)N[C@@H](CO)C(=O)N[C@@H](CC(C)C)C(=O)N[C@@H](CCCNC(=N)N)C(=O)N[C@@H](Cc1c[nH]cn1)C(=O)N[C@@H](Cc1ccc(O)cc1)C(=O)N[C@@H](Cc1ccc(O)cc1)C(=O)N[C@@H](CC(N)=O)C(=O)N[C@@H](Cc1c[nH]c2ccccc12)C(=O)N[C@@H](CC(C)C)C(=O)N[C@H](C(=O)N[C@@H](CCCNC(=N)N)C(=O)N[C@@H](CCC(N)=O)C(=O)N[C@@H](CCCNC(=N)N)C(=O)N[C@@H](Cc1ccc(O)cc1)C(N)=O)[C@@H](C)O)C(C)C
  Ki: 1.95 nM

B2: Compound 238 (peptide)
peptide: Isovaleryl-APEK([AEEA-AEEA-γGlu-C18 diacid])TEEEASPEELQRYYVSLRHYYNWLTRQRY-NH2
SMILES: CC(C)CC(=O)N[C@@H](C)C(=O)N1CCC[C@H]1C(=O)N[C@@H](CCC(=O)O)C(=O)N[C@@H](CCCCNC(=O)COCCOCCNC(=O)COCCOCCNC(=O)CC[C@H](NC(=O)CCCCCCCCCCCCCCCCC(=O)O)C(=O)O)C(=O)N[C@H](C(=O)N[C@@H](CCC(=O)O)C(=O)N[C@@H](CCC(=O)O)C(=O)N[C@@H](CCC(=O)O)C(=O)N[C@@H](C)C(=O)N[C@@H](CO)C(=O)N1CCC[C@H]1C(=O)N[C@@H](CCC(=O)O)C(=O)N[C@@H](CCC(=O)O)C(=O)N[C@@H](CC(C)C)C(=O)N[C@@H](CCC(N)=O)C(=O)N[C@@H](CCCNC(=N)N)C(=O)N[C@@H](Cc1ccc(O)cc1)C(=O)N[C@@H](Cc1ccc(O)cc1)C(=O)N[C@H](C(=O)N[C@@H](CO)C(=O)N[C@@H](CC(C)C)C(=O)N[C@@H](CCCNC(=N)N)C(=O)N[C@@H](Cc1c[nH]cn1)C(=O)N[C@@H](Cc1ccc(O)cc1)C(=O)N[C@@H](Cc1ccc(O)cc1)C(=O)N[C@@H](CC(N)=O)C(=O)N[C@@H](Cc1c[nH]c2ccccc12)C(=O)N[C@@H](CC(C)C)C(=O)N[C@H](C(=O)N[C@@H](CCCNC(=N)N)C(=O)N[C@@H](CCC(N)=O)C(=O)N[C@@H](CCCNC(=N)N)C(=O)N[C@@H](Cc1ccc(O)cc1)C(N)=O)[C@@H](C)O)C(C)C)[C@@H](C)O
  Ki: 25.1 nM

B3: Compound 241 (peptide)
peptide: Isovaleryl-APEK([AEEA-AEEA-γGlu-C18 diacid])PEEEASPEEIQRYYVSLRHYYNWLTRQRY-NH2
SMILES: CC[C@H](C)[C@H](NC(=O)[C@H](CCC(=O)O)NC(=O)[C@H](CCC(=O)O)NC(=O)[C@@H]1CCCN1C(=O)[C@H](CO)NC(=O)[C@H](C)NC(=O)[C@H](CCC(=O)O)NC(=O)[C@H](CCC(=O)O)NC(=O)[C@H](CCC(=O)O)NC(=O)[C@@H]1CCCN1C(=O)[C@H](CCCCNC(=O)COCCOCCNC(=O)COCCOCCNC(=O)CC[C@H](NC(=O)CCCCCCCCCCCCCCCCC(=O)O)C(=O)O)NC(=O)[C@H](CCC(=O)O)NC(=O)[C@@H]1CCCN1C(=O)[C@H](C)NC(=O)CC(C)C)C(=O)N[C@@H](CCC(N)=O)C(=O)N[C@@H](CCCNC(=N)N)C(=O)N[C@@H](Cc1ccc(O)cc1)C(=O)N[C@@H](Cc1ccc(O)cc1)C(=O)N[C@H](C(=O)N[C@@H](CO)C(=O)N[C@@H](CC(C)C)C(=O)N[C@@H](CCCNC(=N)N)C(=O)N[C@@H](Cc1c[nH]cn1)C(=O)N[C@@H](Cc1ccc(O)cc1)C(=O)N[C@@H](Cc1ccc(O)cc1)C(=O)N[C@@H](CC(N)=O)C(=O)N[C@@H](Cc1c[nH]c2ccccc12)C(=O)N[C@@H](CC(C)C)C(=O)N[C@H](C(=O)N[C@@H](CCCNC(=N)N)C(=O)N[C@@H](CCC(N)=O)C(=O)N[C@@H](CCCNC(=N)N)C(=O)N[C@@H](Cc1ccc(O)cc1)C(N)=O)[C@@H](C)O)C(C)C
  Ki: 2.95 nM

B4: Compound 243 (peptide)
peptide: Isovaleryl-APEK([AEEA-AEEA-γGlu-C18 diacid])PEEEASPEELQQYYVSLRHYYNWLTRQRY-NH2
SMILES: CC(C)CC(=O)N[C@@H](C)C(=O)N1CCC[C@H]1C(=O)N[C@@H](CCC(=O)O)C(=O)N[C@@H](CCCCNC(=O)COCCOCCNC(=O)COCCOCCNC(=O)CC[C@H](NC(=O)CCCCCCCCCCCCCCCCC(=O)O)C(=O)O)C(=O)N1CCC[C@H]1C(=O)N[C@@H](CCC(=O)O)C(=O)N[C@@H](CCC(=O)O)C(=O)N[C@@H](CCC(=O)O)C(=O)N[C@@H](C)C(=O)N[C@@H](CO)C(=O)N1CCC[C@H]1C(=O)N[C@@H](CCC(=O)O)C(=O)N[C@@H](CCC(=O)O)C(=O)N[C@@H](CC(C)C)C(=O)N[C@@H](CCC(N)=O)C(=O)N[C@@H](CCC(N)=O)C(=O)N[C@@H](Cc1ccc(O)cc1)C(=O)N[C@@H](Cc1ccc(O)cc1)C(=O)N[C@H](C(=O)N[C@@H](CO)C(=O)N[C@@H](CC(C)C)C(=O)N[C@@H](CCCNC(=N)N)C(=O)N[C@@H](Cc1c[nH]cn1)C(=O)N[C@@H](Cc1ccc(O)cc1)C(=O)N[C@@H](Cc1ccc(O)cc1)C(=O)N[C@@H](CC(N)=O)C(=O)N[C@@H](Cc1c[nH]c2ccccc12)C(=O)N[C@@H](CC(C)C)C(=O)N[C@H](C(=O)N[C@@H](CCCNC(=N)N)C(=O)N[C@@H](CCC(N)=O)C(=O)N[C@@H](CCCNC(=N)N)C(=O)N[C@@H](Cc1ccc(O)cc1)C(N)=O)[C@@H](C)O)C(C)C
  Ki: 2.07 nM

B5: Compound 244 (peptide)
peptide: Isovaleryl-APEK([AEEA-AEEA-γGlu-C18 diacid])PEEDAEPAELQRYYVSLRHYYNWLTRQRY-NH2
SMILES: CC(C)CC(=O)N[C@@H](C)C(=O)N1CCC[C@H]1C(=O)N[C@@H](CCC(=O)O)C(=O)N[C@@H](CCCCNC(=O)COCCOCCNC(=O)COCCOCCNC(=O)CC[C@H](NC(=O)CCCCCCCCCCCCCCCCC(=O)O)C(=O)O)C(=O)N1CCC[C@H]1C(=O)N[C@@H](CCC(=O)O)C(=O)N[C@@H](CCC(=O)O)C(=O)N[C@@H](CC(=O)O)C(=O)N[C@@H](C)C(=O)N[C@@H](CCC(=O)O)C(=O)N1CCC[C@H]1C(=O)N[C@@H](C)C(=O)N[C@@H](CCC(=O)O)C(=O)N[C@@H](CC(C)C)C(=O)N[C@@H](CCC(N)=O)C(=O)N[C@@H](CCCNC(=N)N)C(=O)N[C@@H](Cc1ccc(O)cc1)C(=O)N[C@@H](Cc1ccc(O)cc1)C(=O)N[C@H](C(=O)N[C@@H](CO)C(=O)N[C@@H](CC(C)C)C(=O)N[C@@H](CCCNC(=N)N)C(=O)N[C@@H](Cc1c[nH]cn1)C(=O)N[C@@H](Cc1ccc(O)cc1)C(=O)N[C@@H](Cc1ccc(O)cc1)C(=O)N[C@@H](CC(N)=O)C(=O)N[C@@H](Cc1c[nH]c2ccccc12)C(=O)N[C@@H](CC(C)C)C(=O)N[C@H](C(=O)N[C@@H](CCCNC(=N)N)C(=O)N[C@@H](CCC(N)=O)C(=O)N[C@@H](CCCNC(=N)N)C(=O)N[C@@H](Cc1ccc(O)cc1)C(N)=O)[C@@H](C)O)C(C)C
  Ki: 1.84 nM

B6: Compound 242 (peptide)
peptide: Isovaleryl-APEK([AEEA-AEEA-γGlu-C18 diacid])PEADASAEELQRYYVSLRHYYNWLTRQRY-NH2
SMILES: CC(C)CC(=O)N[C@@H](C)C(=O)N1CCC[C@H]1C(=O)N[C@@H](CCC(=O)O)C(=O)N[C@@H](CCCCNC(=O)COCCOCCNC(=O)COCCOCCNC(=O)CC[C@H](NC(=O)CCCCCCCCCCCCCCCCC(=O)O)C(=O)O)C(=O)N1CCC[C@H]1C(=O)N[C@@H](CCC(=O)O)C(=O)N[C@@H](C)C(=O)N[C@@H](CC(=O)O)C(=O)N[C@@H](C)C(=O)N[C@@H](CO)C(=O)N[C@@H](C)C(=O)N[C@@H](CCC(=O)O)C(=O)N[C@@H](CCC(=O)O)C(=O)N[C@@H](CC(C)C)C(=O)N[C@@H](CCC(N)=O)C(=O)N[C@@H](CCCNC(=N)N)C(=O)N[C@@H](Cc1ccc(O)cc1)C(=O)N[C@@H](Cc1ccc(O)cc1)C(=O)N[C@H](C(=O)N[C@@H](CO)C(=O)N[C@@H](CC(C)C)C(=O)N[C@@H](CCCNC(=N)N)C(=O)N[C@@H](Cc1c[nH]cn1)C(=O)N[C@@H](Cc1ccc(O)cc1)C(=O)N[C@@H](Cc1ccc(O)cc1)C(=O)N[C@@H](CC(N)=O)C(=O)N[C@@H](Cc1c[nH]c2ccccc12)C(=O)N[C@@H](CC(C)C)C(=O)N[C@H](C(=O)N[C@@H](CCCNC(=N)N)C(=O)N[C@@H](CCC(N)=O)C(=O)N[C@@H](CCCNC(=N)N)C(=O)N[C@@H](Cc1ccc(O)cc1)C(N)=O)[C@@H](C)O)C(C)C
  Ki: 0.81 nM
